# From the nanobody polyreactivity screen of Harvey et al. (2022)
# Experiment: yeast display, Sf9 membrane polyspecificity reagent, FACS + sequencing; frameworks hold sequencing errors
# Summary of the method: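 Genes from sorted yeast were amplified by colony PCR, read by MiSeq 2 × 250 sequencing and filtered on CDR length. These cells carried a synthetic nanobody library in Saccharomyces cerevisiae BJ5465 and were sorted by FACS into low and high (top ~1%) gates on anti-HA and streptavidin fluorescence. Polyreactivity is labelled according to the gate of origin.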
row,Sequence,polyreactivity (PSR sort gate)
1,QVQLVKSGGGLVQAGGSLRLSCAASGRIFVGYVMGWYIQAPGKARELVAAIDSGRRTNYADSVKGRFTISRDNAKNTVYLQINSLKPEDTAVYYCNREAAHGSLRWTEMEYWGQGTQVTVSS,low polyreactivity
2,QVQLVQSGGGIVQEGGSLRLSCAASGSTFYRNTMGWYRQAPGKERELVAAISRTGASTHYADSVKGRFTISRDNAKNTVYFQMNSLKPEDTAVYYCNAVPAIGKYYGGGYWGQGTQVTVSS,high polyreactivity
3,QVQLVQSGGGLVQAGGRLRLSCAASGRIFGFYAMGWYRQAPGKERELVAAITSTGRTYYADSVKGRFTISRDNAKNTVYLQMNSLKPEDTAVYYCAAGYGRADSGWVRMNYWGQGTQVTVSS,high polyreactivity
4,QVQLVQSGGGLVQAGGSLRLSCAASGITFIHNAMGWYRQAPGKERELVAAITTSDGSTYYADSVKGRFTISRDNAKYTVYFQMNSLTPEDTAVYYCAARGRHSGYYSFPYYYWGQGTQVTVSS,low polyreactivity
5,QVQLVQSGGGLVQAGGSLRLSCAASGRTIWANAMGWYRQAPGKESELVAAITTSGGSTNYADSVKGRFTISRDNAKNTVYLQMNSLKPEDTAVYYCNADPTYHVVNGVGYWGQGTQVTVSS,low polyreactivity
6,QVQLVQSGGGLVQAGGSLRLSCAASGRTIYSKAMGWYRQAPGKERELVAAITSTDDSTYYADSVKGRFTISRDNAKNTVYLQMNSLKPEDTAVYYCNTDGLIAIRGLWWVEYDYWGQGTQVTVSS,low polyreactivity
7,QVQLVQSGGGLVQAGGSLRLSCAASGRTLWSYVMGWYRQAPGKERELVAAITSGGTTYYADSVKGRFTISRDNAKNTVYLQMNSLKPEDTAVYYCNVYTKFVYAYDYWGQGTQVTVSS,high polyreactivity
8,QVQLVQSGGGLVQAGGSLRLSCAASGSIFAVYGMGWNRQAPGKERELVASISTGVSTNYADSVKGRFTISRDNAKNTVYLQRHSLKPEDTAVYYCAKTIYKSRVSYGSWGQGTQVTVSS,low polyreactivity
9,QVQLVQSGGGLVQAGGSLRLSCAPSGSISTPYTMGWYRQAPGKERELVAAISWIGDTTSYADSVKGRYTISRDNAKNTVYLQMKSLKPEDTAVYYCDADYLWYNYAGQVDQDYDYWGQGTQVTVSS,low polyreactivity
10,QVQLVQSGGGLVQAGGSLRLSSAASGRIFATNAMGWYRQAPGKERELVAAITTSGGSTYYADSVKGRFTISRDNAKNTVYLHLNSLKPEDTAVYYCAARRGPNSYRWRMGYWGHGTQVTVSS,high polyreactivity
11,QVQLVQSGGGLVQAGGSLSLSCAASVFIFYYYDMGWYIQAPGKERELVAAISGRDGSTYYADSVKGRFTISRDNAKNTVYLQMNSLKPEDTAVYYCAAANRSRSIGSQYGYWGQGTQVTVSS,high polyreactivity
12,QVQLVQSGRGLVHAGCSLRLSCAASGRIYAGNAMGLYRQPPGKERELFATITSGGSTYYADSVKGRFTISRDNAKNTVYLQMNSLKPEDTAVYYCNAVNYWVKSRFSLTWEFAVVYWGQGTQVTVSS,low polyreactivity
13,QVQLVQSRGGLVQAGGSLRISCAASGRIFNPNAMRWDRQAPVKQRELVAAITRGGSTNYADSVKGRLTISRDNAKNTVYLQMISLQPEVSAVLYCAADFKTWYCDFDYCGQGTQVTVSS,high polyreactivity
14,QVQLVQSRGVLVQAGGSLRLSCAASGSIFKYNAMGWYRQAPGKERELVAAITYSGGSTYYADSVKGRFTISRDNAKNTVYLQMNSLKPEDTAVYYCNAYRRFSAFDYWGQGTQVTVSS,high polyreactivity
15,QVQLVSGGGLVQAGGSLRLSCAASGRIFVSYAMGWYRQAPGKERELVADISSDGSTNYADSVKGRFTISRDNAKNTVYLQMNSLKPEDTAVYYCAVEVVRVYRYDYWGQGTQVTVSS,low polyreactivity
16,QVQLVSSGGGLVQAGGSLSLSCAASGRTFCINAMGWYRQAPGKERELVAAIRTGGSTYYADSVKGRFTISRDNAKNTVYLQMNSLKPEDTAVYYCAAVLYHNRKTEYTYGYWGQGTQVTVSS,high polyreactivity
17,QVQLVVSGGGLVQAAGSLRLSCAASGLTFANYVMGWYRQAPGKERELVASISISGGSTYYADSEKGRFTISRDNAKNTVYLQMNSLKPEDTAVYYCAASFVSSYQYAYWGQVTQVTVSS,high polyreactivity
18,QVQLVVSGGGLVQAGGSLRLSCAASGSTFYAYAMGWYRQAPGKERELVARIRWRGGRTYYADSVKGRFTISRDNAKNTVYLRMNSLKPEDTAVYYCNRGYYSYYGRYYYWGQGTQVTLSS,high polyreactivity
19,QVQLVVSGGGLVQAGGSLRLSCAASGYTFQGYAMGWYRQAPGKERELVAGISRSGGRTYYADSVKGRFTISRDNAKNTVYLQMNSLKPEDTAVYYCASTYPGAIRDYWGQGTQVTVSS,high polyreactivity
20,QVQLVVSGGGLVQAGGSLRLSWAASGSIFERYAMGLYRQAPGKERELVARISRSGTSTYYADSVKGRFTISRDNAKNSVYDQMNSLQPEDTAVYYCNATGSRYSGYQRCHYWRYDYLGQGTQVTVSS,high polyreactivity
21,QVQLVVSGGGLVQAGGTLRLSCAASGSILSDNGMGWYRQAPGKERELVASIRTGDITKYADCVKGRFTISRDNAKNTVDLQMTSLKPEDTAVYYCAAAGRVQYTRKYYGWRNRNDYWGQGTQVTVSS,low polyreactivity
22,QVQMQESGGGLVQAGGSLRLSCAASCTISQEDWMGWYRQAPGKEREFVAAIGLGSNTNYADSLKGRFTISRDNAKNTVYLQMNSLKPEDTAVYYCAVSVWQYSDHVFRGQGTQVTVSS,low polyreactivity

row,Sequence,polyreactivity (PSR sort gate)
1,QVQMQESGGGLVQAGGSLRLSCAASGSISRYYDMGWYRQAPGKEREFVAGISGGAITYYADSVKGRFTISRDNAKNSVYLQMNSLNREDTAVYYCAADTGVYQYHSYWGQGTQVTVSS,low polyreactivity
2,QVQPQESGGGPVQACGSLRLSCAASGNILDADILGWYRLVPGIERELVASITDGGSTNYAESVKGRFTIRRDNAKNTVYLQMNSLIPEDTAVYYCAVWSLGRWRHYYWGQGTQVTVSS,low polyreactivity
3,QVQQQESGGGLVQAGGSLRLSCAASGSISRLDYMGWYRQATGKERELVAAIDNGSTTYYADSVKGRLTISRDNAKYTVYLQMNSLKPEDNAVYFCAAVRGRGGTHAYWGQGTQVTVSG,low polyreactivity
4,QVQQQESGGGLVQAGGSLRLSCAASGYISVVIGMGWYRQSPGKERELVASIAYGAITYYTDSVKGRFTISRDYAKNTEYLQMNSLKAEDTAVYYCAADQPPLAYHWYWGQGTQATVSS,high polyreactivity
5,QVQQQESGGVLVHAGGSLRLSCAASGTISPLPAMGWYRQAPGKEREFVAGIDTGAISNYADSVKGRFTISRDNAKNTVYLQMNSLKPEDTAVYYCAVFPAAYEYYVRYYTYWGQGTQVTVSS,low polyreactivity
6,QVQQQESRGGLVQAGGSLRLSCAASCTISQEDWMGWYRQAPGKEREFVAAIGLGSNTNYADSLKGRFTISRDNAKNTVYLQMNSLKPEDTAVYYCAVSVWQYSDHVYRGQGTQVTVSS,low polyreactivity
7,QVQREESGGGLVQAGGSLRLSCAASGSTFDAYAMGWYRQAPGKERELVAAITWSGGSTYYADSVKGRFTISRDNAKNTVYLQMNSLKPEATAVYYCAADKLGELDYWGQGTQVTVSS,low polyreactivity
8,QVQRLESGGGLVKAGGSLRLSCSASGIILPYYVMGWYRQAPGKEREFVADITWSGGSTYYADSVKGRFTISRDNAKNTVYLQMNSLKPEDTAVYYCAAEGPWYYFFDMDYWGQGTQVTVSS,high polyreactivity
9,QVQRLESVGRLVQAGGSLRLSSAPSGIIFRGYVMGWYIQARGKESELVAAITSSTGSTYYADSVKGRFTISRENAKNTGYLLMNILKPEDTAVYYCNVDYYVPNDGYEYWGQGTQVTVSS,low polyreactivity
10,QVQRVEEGRGLVQAGGTLRISCAASGSIFNQYAMGWYRHAPGQERELVAAITASGGSTYYAVSVKGRFTISRDNAKKTVYLQMNCLKPEDPAVYYCAKVELRDSAELGSDEYDYWGQGTQVTVSS,low polyreactivity
11,QVQRVESAGGLVQAGGSLRISCAASGSTLYKYAMGWYRQAPGKERELVAAISWSGSSTYYADSVKGRFTISRDNAKNTVYLQMNSLKPVDTAVYYCAAYPRPYIVYTDGYVWYEFDYWGQGTQVTVSS,low polyreactivity
12,QVQRVESCGGLVQAGGSLRLSCAASGSIFTQYTMGWYRQEPAKERELVAAISRSGGRTYYADSVKGRFTISRDNAKNTVYLQMNSLKPEDTAVYYCATRALYWRYGYDYWGQGTQVTVSS,high polyreactivity
13,QVQRVESGGALVQAGGSHRLSCAASGSIFYAYAMGWYRLAPGKERELVAAIRSSDSRTYYADSVKGRFTISRDNAKKTVYLQMNCLKPEETAVYYCAAEGSRNVKFDYCGQGTQVTVSS,high polyreactivity
14,QVQRVESGGGIVQAGGSHRLSCAASGSIFRYYAMGWYRQAPGKEREFVAAISSSGGSTYYADSVKGRFTISRDNAKNTVYLQMNSLKPEDTAVYYCARDWPSYYARQYDYWGQGTQVTVSS,high polyreactivity
15,QVQRVESGGGIVQAGGSLRLSCAASGSTFSYYAMGWYRQAPGKERELVAAISSSGGNTYYADSVKGRFTISRDNAKNTVYLQMNSLKPEDTAVYYCAKLYRYIYGGMDYWGQGTQVTVSS,high polyreactivity
16,QVQRVESGGGIVQARGSLRLSCAASGRIFKTNAMRCYRQSRGKERELVAAISSSGGSTYYADSVKGRFTISRDNAKNTVDLQRNSLNPEDTAVYYCAADGRTKGYDSLGQGTQVTVSS,high polyreactivity
17,QVQRVESGGGLVQAGGSLRLRCAASGRIFQGNAMGWYRQAPGKERELVAAITWRGGTTYYADSVKGRFTISRDNAKNTVYLQMNSLKPEDTAVYYCNADWWRTLESDYWGQGTQVTVSS,low polyreactivity
18,QVQRVESGGGLVQAGGSLRLSCAASGFIFDDKAMGWYRQAPGKERELVAAITSGGGSTYYADSVKGRFTISRDNAKNTVYLQMNSLKPEDTAVYYCNAVPSQHDEFDYWGQGTQVTVSS,low polyreactivity
19,QVQRVESGGGLVQAGGSLRLSCAASGGIFAVNVMGWYRPAPGKERELVAAITSTGSTYYADSVKGRFTISRDNAKNTVYLQMNSLKPEDTAVYYCAADYVYYDSYDDTVFGYEYWGQGTQVTVSS,high polyreactivity
20,QVQRVESGGGLVQAGGSLRLSCAASGGIFFYNAMGWYRQAPGIERELVATIRGGGSTNYADSVKGRFTISRDNAKNTVYLQMNSLKPEDTAVYFCAAVDRRGANYNYWGQGTQVTVSS,high polyreactivity
21,QVQRVESGGGLVQAGGSLRLSCAASGIIFGSYAMGGYRQAPGKERELVAAITSIGTRTYYADSVKGRFTISRDNAKNTVYLQMNSLKPEDTAVYYCNAPRFWSRHGLRDYWGQGTQVTVSS,high polyreactivity
